Assay results published in patent US20220372130A1 (MITSUBISHI TANABE PHARMA, published 2022).
Positions count from the first letter of the chain named. Each block holds one binder with its values, some of them ahead of it.

Molecular target: T1, human IL-33 protein (residue 112 to residue 270) (ATGen, ILC070) (human, UniProt O95760 112-270)
T1 construct: Bought protein (ATGen, ILC070); also called IL-33 (residue 112 to residue 270)
T1 sequence: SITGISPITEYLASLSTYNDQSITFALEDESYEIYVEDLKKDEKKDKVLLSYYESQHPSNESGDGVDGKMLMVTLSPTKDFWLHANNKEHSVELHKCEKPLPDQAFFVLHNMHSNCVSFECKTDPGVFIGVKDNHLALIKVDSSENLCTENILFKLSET
Test: KinExA
Procedure: Five types of human IL-33 antibodies (A10-1C04, A23-1A05, A25-2CO2, A25-3H04 and A26-1F02) along with mouse sST2-Fc, which is a fusion protein of mouse ST2 and human IgG1 constant region, were prepared with recombinant CHO cells (WO 2015/099175).

B1: A10-1C04 (antibody, human IgG1, lambda, V domains shown)
VH: EVQLLESGGGLVQPGGSLRLSCAASGFTFSDYYMNWVRQAPGKGLEWVSSISRYSSYIYYADSVKGRFTISRDNSKNTLYLQMNSLRAEDTAVYYCARDIGGMDVWGQGTLVTVSS
VL: QSVLTQPPSASGTPGQRVTISCTGSSSNIGAVYDVHWYQQLPGTAPKLLIYRNNQRPSGVPDRFSGSKSGTSASLAISGLRSEDEADYYCQTYDSSRWVFGGGTKLTVLG
notes: Prepared with recombinant CHO cells; constant region said to be preferably human IgG1; also called human IL-33 antibody; human anti-IL-33 monoclonal antibody
Kd: 100 pM

B2: A25-2C02 (antibody, human IgG1, lambda, V domains shown)
VH: EVQLLESGGGLVQPGGSLRLSCAASGFTFSNYYMHWVRQAPGKGLEWVSSISARSSYIYYADSVKGRFTISRDNSKNTLYLQMNSLRAEDTAVYYCARLATRNNAFDIWGQGTLVTVSS
VL: QSVLTQPPSASGTPGQRVTISCSGSSSNIGRNAVNWYQQLPGTAPKLLIYASNMRVSGVPDRFSGSKSGTSASLAISGLRSEDEADYYCWAWDDSQKVGVFGGGTKLTVLG
notes: Prepared with recombinant CHO cells; constant region said to be preferably human IgG1; also called A25-2CO2; human IL-33 antibody
Kd: 0.7 pM

Second part, the binder after the results:

Kd: 5.3 pM
B3: A26-1F02 (antibody, human IgG1, lambda, V domains shown)
VH: B2 VH with I58L, N103H, N104V
VL: B2 VL with R31N, V56R, S57P, W90E, V98A, G99V
notes: as for B1

Kd: 195 pM
B4: A23-1A05 (antibody, human IgG1, lambda, V domains shown)
VH: B2 VH with S56R, I58H, N103H
VL: B2 VL with R31N, N35S, S57I, W90G, V98A, G99L
notes: as for B1

Kd: 7.7 pM
B5: A25-3H04 (antibody, human IgG1, lambda, V domains shown)
VH: B2 VH with N31R, R54Q, Y57H, K65E, N103Q
VL: B2 VL with V56R, W90S, G99V
notes: as for B1
